Read-outs that look alike come from different tables or passages of the source.
B1: hEP: human apoE dual-domain peptide: helix 4 of N-terminal domain plus major lipid-binding region; expressed in bacteria (protein)
peptide: EELRVRLASHLRKLRKRLLRDADDLQKRLAVYEEQAQQIRLQAEAFQARLKSWFEPLVEDM

Legend:
[1] = test system: JFH-1 HCVcc-Luc
Procedure: FIGS. 1A-1C. […] (A) Schematic illustration of apoE protein domains and the amino acid sequences of hEP and mEP peptides. The amino acid sequences shown are hEP-1 (SEQ ID NO: 6) and mEP (SEQ ID NO: 20). […] Huh7.5.1 cells were infected with JFH-1 HCVcc-Luc (MOI˜0.5) in the presence of hEP or mEP for 2 hours. After removal of virus and peptides, cells were further incubated for 48 hours prior to luciferase assay. Data are presented as % inhibition relative to control infections in which cells were treated with DMSO (0%). Results are expressed as mean±standard deviation (s.d.) (n=3). (C). Huh7.5.1 cells were treated with hEP or DMSO at indicated doses for 48 hours. The effect of hEP on cell viability was measured by a CellTiter Glo assay kit.
FIGS. 7A-7E. Mapping the anti-viral activity of hEP. In (A) and (B), HCVcc-luc was first mixed with indicated peptides (20 μg/ml, 2.7 μM) and then incubated with Huh7.5.1 cells for two hours at 37° C. to initiate infection. After additional 48 hours incubation, luciferase activity was measured. Results are presented as fold of inhibition relative to infections containing DMSO (n=5, mean±sd). (C) 20 μg of hEP-2 or hEP-2/ΔCys were resuspended in PBS and kept at room temperature for 30 minutes. Peptides were then mixed with 2×SDS-sample buffer without DTT and boiled for 5 minutes. Alternatively, samples were simply left unboiled or mixed with sample buffer containing DTT (2 mM). Peptide samples were then subjected to electrophoresis on a 16% tricine non-reducing gel (Invitrogen). […] (D) and (E) Mass spectrometric analysis of hEP-2 or hEP-2/ΔCys.
Detailed procedures involving the production and use of HCVpp and HCVcc have been published elsewhere (Liu et al., J Virol 2009; 83:2011-2014; Yang et al., Hepatology 2008; 48:1396-1403; Yang et al., J Biol Chem 2008; 283:8643-8653). Production procedure of HCVcc expressing firefly luciferase that was inserted between NS5A and NS5B (JFH-1 strain) was described elsewhere (Liu et al., Virology 2010; 407:160-170). Unless otherwise indicated, viruses were typically added to cells for two hours before removal. Cells were incubated for additional 48 hours followed by luciferase assay. When purification was needed, HCVcc were subjected to ultracentrifugation (SW41, 28,000×g) for 4 hours through a 20% sucrose cushion. Deidentified human sera, collected from five patients containing high-titer HCV (HCVser), were obtained.

[2] = DMPC binding assay (turbidity OD490nm)
Procedure: FIGS. 3A-3C. Both hEP and mEP mediate plasma cholesterol clearance through hepatic lipoprotein receptors. (A) DMPC binding assay was conducted as described in the examples section. The turbidity of DMPC vesicle solution was monitored by OD490 nm. The curves were representative of two independent experiments. (B) HEK293T cells were loaded with DiI-LDL (5 μg/ml) along with apoE peptide-DMPC particles which competed with DiI-LDL for LDLR binding and LDLR-mediated endocytosis (for 30 min) n=3 for each group. (C) Each peptide (100 μg in 100 μl PBS) was retro-orbitally injected into 6-month-old apoE−/− mice (two mice each group). PBS (100 μl) was injected into two other mice as control. Before (set as 0 min time point) and 5 min, 30 min, 1 h, 2 h, and 4 h after the peptide or PBS injection, 30 μl blood samples were drawn for plasma cholesterol measurement using total Cholesterol Reagent Kit (Raichem, San Diego, Calif.).
1,2-dimyristoyl-sn-glycero-3-phosphatidylcholine (DMPC) (Avanti Polar Lipids Inc., Alabaster, Ala.) was dissolved in chloroform: methanol (3:1, v/v). It was dried thoroughly under a stream of N2. The dried lipid sample was dispersed in pre-warmed buffer (10 mM Tris-HCl, pH7.2; 150 mM NaCl; 0.5 mM EDTA) to final lipid concentration of 10 mg/ml, vortexed for 1 min, and sonicated 10 times at lowest power for 10 seconds at 24° C. The peptide solution, lipid solution and buffer were all maintained at 23.9° C. One milliliter buffer and 250 μg (25 μl lipid solution) were added in a quartz cuvette, and let equilibrate for 10 min, resulting in a turbid DMPC vesicle solution. Peptide solution (250 μg in 100 μl) was then added to turbid solution in the cuvette, the solution was mixed immediately, and the change of turbidity was monitored by OD at 490 nm as a function of time. If the peptide binds to DMPC vesicles, the large DMPC vesicles will be transformed into smaller DMPC-peptide particles, reducing the turbidity of the solution.

[3] = test system: Huh7.5.1 cells; test: Cytotoxicity/cell viability assay (CellTiter-Glo); assay type: cell-based; details: 48 hours; hEP up to 100 μg/ml (~14 μM)
Procedure: FIGS. 1A-1C. A human apoE derived peptide (hEP) suppresses HCV infection. (A) Schematic illustration of apoE protein domains and the amino acid sequences of hEP and mEP peptides. The amino acid sequences shown are hEP-1 (SEQ ID NO: 6) and mEP (SEQ ID NO: 20). (B) Dose dependent inhibition of HCVcc infection by hEP. Huh7.5.1 cells were infected with JFH-1 HCVcc-Luc (MOI˜0.5) in the presence of hEP or mEP for 2 hours. After removal of virus and peptides, cells were further incubated for 48 hours prior to luciferase assay. Data are presented as % inhibition relative to control infections in which cells were treated with DMSO (0%). Results are expressed as mean±standard deviation (s.d.) (n=3). (C). Huh7.5.1 cells were treated with hEP or DMSO at indicated doses for 48 hours. The effect of hEP on cell viability was measured by a CellTiter Glo assay kit.
Huh7.5.1 cells (10^5 per well) were treated with hEP or DMSO at various concentrations for 48 hours in 24-well plates. The numbers of viable cells in culture were determined using the CELLTITER-GLO® Cell Viability Luminescent Assay kit according to the manufacturer's instruction (Promega).

[4] = test system: HCVcc-luc; test: Anti-HCV activity after pre-incubation of the peptide in cell culture; assay type: cell-based, Hepatitis C virus; details: 20 μg/ml, 24 hours in culture before HCVcc-luc
[5] = test system: HIV-1

Molecule | IC50 ([1]; HCVcc infection of Huh7.5.1 cells) [nM] | DMPC binding ([2]; reduction (percentage) of turbidity (OD490nm) of DMPC solution, plateau 10 minutes after addition of peptide) | IC50 ([1]; read-out: 50% inhibitory concentration (IC50) of HCVcc infection, JFH-1 HCVcc-Luc MOI~0.5, peptide present 2 hours, luciferase after 48 hours) [nM] | Suppression of HCVcc infection at various MOIs ([1]; various MOIs) | Cytotoxicity (cell viability) [3] | Binding to DMPC (in words) ([2]; DMPC vesicles, turbidity) | Anti-HCV activity after being left in the culture [4] | Effect on infectivity of HIV-1 [5]
EELRVRLASHLRKLRKRLLRDADDLQKRLAVYEEQAQQIRLQAEAFQARLKSWFEPLVEDM [hEP-1] | 670 | + (+, reduction 25-50%) | – | – | – | – | – | –
B1 | – | – | 670 | robustly suppressed | no cytotoxicity | efficiently bound | largely retained | did not affect the infectivity

— US10125184B2, “Apolipoprotein E polypeptides and their use” (priority 2011, dated 2018)
